# Measured values taken from the supplement of paper PMC10724198.
# ± gives the standard deviation of the averaged measurements.
# Legend:
# [1] = system: Saccharomyces cerevisiae; assay: protein stability index of tFT-peptide fusion (C-terminal peptide) (PSI (0-1 scale)); higher = more stable (slower turnover)
# Procedure: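 MPS profiling in S. cerevisiae of the tFT-X12 degron library: putative degron peptides plus stable controls, 12 aa, fused to the C-terminus of a sfGFP-mCherry timer. Cells are FACS-sorted into 8 mCherry/sfGFP bins and deep-sequenced. PSI runs from 0 (unstable) to 1 (stable). Backgrounds are wild type, das1Δ and doa10Δ at 30 °C, and wild type, das1Δ, cdc34-1 and cdc53-1 at 37 °C; 2-3 technical replicates each.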
# [2] = system: Saccharomyces cerevisiae; assay: as above; conditions: genetic background: wild type; temperature: 30 C
# [3] = genetic background: cdc34-1, temperature: 37 C
# [4] = genetic background: cdc53-1, temperature: 37 C
# [5] = genetic background: das1 deletion, temperature: 30 C
# [6] = genetic background: das1 deletion, temperature: 37 C
# [7] = genetic background: doa10 deletion, temperature: 30 C
# [8] = genetic background: wild type, temperature: 30 C
# [9] = genetic background: wild type, temperature: 37 C
# 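Further: PSI is a weighted mean of sequencing reads over stability bins, variants kept only with over 10 reads, mCherry proximal and sfGFP distal, peptide attached via GGGS linker.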
sequence,measurement,setting,value
GVFVWVVFVCTM,protein stability index,[1]; [3],0.145 ± 0.015
same,protein stability index,[1]; [4],0.315 ± 0.029
same,protein stability index,[1]; [5],0.198 ± 0.017
same,protein stability index,[1]; [6],0.3718 ± 0.00094
same,protein stability index,[1]; [7],0.167 ± 0.0025
same,protein stability index,[1]; [8],0.201 ± 0.013
same,protein stability index,[1]; [9],0.315 ± 0.028
same,protein stability index,[2],0.268 ± 0.053
GVKSQLYSFVWF,protein stability index,[1]; [3],0.6552 ± 0.0036
same,protein stability index,[1]; [4],0.74 ± 0.015
same,protein stability index,[1]; [5],0.633 ± 0.023
same,protein stability index,[1]; [6],0.747 ± 0.013
same,protein stability index,[1]; [7],0.3088 ± 0.0017
same,protein stability index,[1]; [8],0.352 ± 0.018
same,protein stability index,[1]; [9],0.593 ± 0.014
same,protein stability index,[2],0.45 ± 0.015
GVRCRLVIRVLG,protein stability index,[1]; [3],0.47 ± 0.035
same,protein stability index,[1]; [4],0.508 ± 0.0085
same,protein stability index,[1]; [5],0.286 ± 0.016
same,protein stability index,[1]; [6],0.516 ± 0.0056
same,protein stability index,[1]; [7],0.16864 ± 0.00011
same,protein stability index,[1]; [8],0.22 ± 0.0075
same,protein stability index,[1]; [9],0.407 ± 0.0064
same,protein stability index,[2],0.316 ± 0.028
GVSFLFVGVSLV,protein stability index,[1]; [3],0.469 ± 0.065
same,protein stability index,[1]; [4],0.499 ± 0.01
same,protein stability index,[1]; [5],0.34 ± 0.031
same,protein stability index,[1]; [6],0.5503 ± 0.0019
same,protein stability index,[1]; [7],0.3088 ± 0.00076
same,protein stability index,[1]; [8],0.354 ± 0.015
same,protein stability index,[1]; [9],0.523 ± 0.019
same,protein stability index,[2],0.419 ± 0.041
GVVCWVVVFGGW,protein stability index,[1]; [3],0.307 ± 0.029
same,protein stability index,[1]; [4],0.5008 ± 0.0019
same,protein stability index,[1]; [5],0.281 ± 0.029
same,protein stability index,[1]; [6],0.512 ± 0.0065
same,protein stability index,[1]; [7],0.233 ± 0.0029
same,protein stability index,[1]; [8],0.262 ± 0.034
same,protein stability index,[1]; [9],0.442 ± 0.058
same,protein stability index,[2],0.416 ± 0.035
GVWSLDWFLLVW,protein stability index,[1]; [3],0.0785 ± 0.021
same,protein stability index,[1]; [4],0.187 ± 0.026
same,protein stability index,[1]; [5],0.158 ± 0.016
same,protein stability index,[1]; [6],0.223 ± 0.0023
same,protein stability index,[1]; [7],0.134 ± 0.016
same,protein stability index,[1]; [8],0.15 ± 0.023
same,protein stability index,[1]; [9],0.217 ± 0.017
same,protein stability index,[2],0.24 ± 0.016
GWFCLFFVVSTG,protein stability index,[1]; [3],0.213 ± 0.034
same,protein stability index,[1]; [4],0.3162 ± 0.0016
same,protein stability index,[1]; [5],0.225 ± 0.024
same,protein stability index,[1]; [6],0.4003 ± 0.0021
same,protein stability index,[1]; [7],0.203 ± 0.0087
same,protein stability index,[1]; [8],0.225 ± 0.031
same,protein stability index,[1]; [9],0.371 ± 0.012
same,protein stability index,[2],0.342 ± 0.026
GWIFFYFTWFVG,protein stability index,[1]; [3],0.127 ± 0.018
same,protein stability index,[1]; [4],0.236 ± 0.025
same,protein stability index,[1]; [5],0.198 ± 0.028
same,protein stability index,[1]; [6],0.319 ± 0.017
same,protein stability index,[1]; [7],0.181 ± 0.029
same,protein stability index,[1]; [8],0.172 ± 0.035
same,protein stability index,[1]; [9],0.275 ± 0.0097
same,protein stability index,[2],0.263 ± 0.022
GWLSVLVYFLSG,protein stability index,[1]; [3],0.471 ± 0.025
same,protein stability index,[1]; [4],0.545 ± 0.03
same,protein stability index,[1]; [5],0.387 ± 0.034
same,protein stability index,[1]; [6],0.5619 ± 0.0042
same,protein stability index,[1]; [7],0.284 ± 0.0044
same,protein stability index,[1]; [8],0.326 ± 0.0091
same,protein stability index,[1]; [9],0.481 ± 0.022
same,protein stability index,[2],0.408 ± 0.03
GWVSCCVWSFLV,protein stability index,[1]; [3],0.243 ± 0.028
same,protein stability index,[1]; [4],0.5924 ± 0.0053
same,protein stability index,[1]; [5],0.531 ± 0.016
same,protein stability index,[1]; [6],0.663 ± 0.0083
same,protein stability index,[1]; [7],0.066 ± 0.012
same,protein stability index,[1]; [8],0.066 ± 0.0087
same,protein stability index,[1]; [9],0.063 ± 0.016
same,protein stability index,[2],0.122 ± 0.015
HALCLSVYVSAH,protein stability index,[1]; [3],0.265 ± 0.0049
same,protein stability index,[1]; [4],0.304 ± 0.022
same,protein stability index,[1]; [5],0.249 ± 0.031
same,protein stability index,[1]; [6],0.397 ± 0.018
same,protein stability index,[1]; [7],0.179 ± 0.0045
same,protein stability index,[1]; [8],0.185 ± 0.02
same,protein stability index,[1]; [9],0.323 ± 0.018
same,protein stability index,[2],0.281 ± 0.024
HCLLQDVPPTLH,protein stability index,[1]; [3],0.641 ± 0.026
same,protein stability index,[1]; [4],0.6925 ± 0.0062
same,protein stability index,[1]; [5],0.711 ± 0.051
same,protein stability index,[1]; [6],0.678 ± 0.014
same,protein stability index,[1]; [7],0.703 ± 0.021
same,protein stability index,[1]; [8],0.702 ± 0.015
same,protein stability index,[1]; [9],0.66 ± 0.02
same,protein stability index,[2],0.734 ± 0.031
HCNRRNKIYWYS,protein stability index,[1]; [3],0.6116 ± 0.00076
same,protein stability index,[1]; [4],0.73 ± 0.012
same,protein stability index,[1]; [5],0.689 ± 0.063
same,protein stability index,[1]; [6],0.739 ± 0.051
same,protein stability index,[1]; [7],0.106 ± 0.019
same,protein stability index,[1]; [8],0.111 ± 0.032
same,protein stability index,[1]; [9],0.189 ± 0.014
same,protein stability index,[2],0.304 ± 0.051
HILRLVYFIVYE,protein stability index,[1]; [3],0.402 ± 0.01
same,protein stability index,[1]; [4],0.533 ± 0.028
same,protein stability index,[1]; [5],0.316 ± 0.044
same,protein stability index,[1]; [6],0.504 ± 0.0089
same,protein stability index,[1]; [7],0.264 ± 0.01
same,protein stability index,[1]; [8],0.293 ± 0.015
same,protein stability index,[1]; [9],0.554 ± 0.017
same,protein stability index,[2],0.4189 ± 0.003
HLYCYNILLVSG,protein stability index,[1]; [3],0.2001 ± 0.00066
same,protein stability index,[1]; [5],0.306 ± 0.04
same,protein stability index,[1]; [6],0.419 ± 0.007
same,protein stability index,[1]; [7],0.201 ± 0.018
same,protein stability index,[1]; [8],0.254 ± 0.015
same,protein stability index,[1]; [9],0.375 ± 0.038
same,protein stability index,[2],0.286 ± 0.042
HSPRVLLPLYFR,protein stability index,[1]; [3],0.199 ± 0.064
same,protein stability index,[1]; [4],0.133 ± 0.013
same,protein stability index,[1]; [5],0.301 ± 0.035
same,protein stability index,[1]; [6],0.365 ± 0.033
same,protein stability index,[1]; [7],0.672 ± 0.02
same,protein stability index,[1]; [8],0.278 ± 0.037
same,protein stability index,[1]; [9],0.328 ± 0.021
same,protein stability index,[2],0.378 ± 0.086
ICFPLQIFRILV,protein stability index,[1]; [3],0.408 ± 0.013
same,protein stability index,[1]; [4],0.46 ± 0.019
same,protein stability index,[1]; [5],0.348 ± 0.021
same,protein stability index,[1]; [6],0.4919 ± 0.0042
same,protein stability index,[1]; [7],0.211 ± 0.014
same,protein stability index,[1]; [8],0.246 ± 0.019
same,protein stability index,[1]; [9],0.345 ± 0.006
same,protein stability index,[2],0.3549 ± 0.0027
IEVGVAILLLGE,protein stability index,[1]; [3],0.646 ± 0.042
same,protein stability index,[1]; [4],0.668 ± 0.0081
same,protein stability index,[1]; [5],0.551 ± 0.03
same,protein stability index,[1]; [6],0.6842 ± 0.0029
same,protein stability index,[1]; [7],0.5066 ± 0.0028
same,protein stability index,[1]; [8],0.529 ± 0.01
same,protein stability index,[1]; [9],0.6791 ± 0.0027
same,protein stability index,[2],0.514 ± 0.12
IFFSLFFFFLCN,protein stability index,[1]; [3],0.353 ± 0.06
same,protein stability index,[1]; [4],0.413 ± 0.0066
same,protein stability index,[1]; [5],0.356 ± 0.027
same,protein stability index,[1]; [6],0.526 ± 0.068
same,protein stability index,[1]; [7],0.35 ± 0.03
same,protein stability index,[1]; [8],0.289 ± 0.011
same,protein stability index,[1]; [9],0.4212 ± 0.0014
same,protein stability index,[2],0.35 ± 0.056
IGLSIWSVVSAL,protein stability index,[1]; [3],0.652 ± 0.042
same,protein stability index,[1]; [4],0.689 ± 0.015
same,protein stability index,[1]; [5],0.535 ± 0.016
same,protein stability index,[1]; [6],0.6826 ± 0.0014
same,protein stability index,[1]; [7],0.253 ± 0.0069
same,protein stability index,[1]; [8],0.286 ± 0.033
same,protein stability index,[1]; [9],0.5056 ± 0.0043
same,protein stability index,[2],0.392 ± 0.024
